From patent publication US6884600B1, “Protein phosphatase-1 catalytic subunit interactions” (Medical Research Council London, priority 1996, dated 2005)

B1: M110-(L24-Y496): rat aorta M110 fragment, residues 24-496 (protein, UniProt Q10728 24-496, looked up, fragment)
chain: LEPPVVKRQKTKVKFDDGAVFLAACSSGDTDEVLKLLHRGADINYANVDGLTALHQACIDDNVDMVKFLVENGANINQPDNEGWIPLHAAASCGYLDIAEFLIGQGAHVGAVNSEGDTPLDIAEEEAMEELLQNEVNRQGVDIEAARKEEERIMLRDARQWLNSGHISDVRHAKSGGTALHVAAAKGYTEVLKLLIQAGYDVNIKDYDGWTPLHAAAHWGKEEACRILVDNLCDMETVNKVGQTAFDVADEDILGYLEELQKKQNLLHSEKRDKKSPLIESTANMENNQPQKTFKNKETLIIEPEKNASRIESLEQEKADEEEEGKKDESSCSSEEDEEDDSESEAETDKTKPMASVTNAHTASTQAAPAAVTTPTLSSNQGTPTSPVKKFPTSTTKISPKEEERKDESPASWRLGLRKTGSYGALAEITASKEAQKEKDTAGVIRSASSPRLSSSLDNKEKEKDNKGTRLAY
B2: GST-M110-(M1-S477): GST fusion of rat aorta M110 residues 1-477 (protein)
chain: MKMADAKQKRNEQLKRWIGSETDLEPPVVKRQKTKVKFDDGAVFLAACSSGDTDEVLKLLHRGADINYANVDGLTALHQACIDDNVDMVKFLVENGANINQPDNEGWIPLHAAASCGYLDIAEFLIGQGAHVGAVNSEGDTPLDIAEEEAMEELLQNEVNRQGVDIEAARKEEERIMLRDARQWLNSGHISDVRHAKSGGTALHVAAAKGYTEVLKLLIQAGYDVNIKDYDGWTPLHAAAHWGKEEACRILVDNLCDMETVNKVGQTAFDVADEDILGYLEELQKKQNLLHSEKRDKKSPLIESTANMENNQPQKTFKNKETLIIEPEKNASRIESLEQEKADEEEEGKKDESSCSSEEDEEDDSESEAETDKTKPMASVTNAHTASTQAAPAAVTTPTLSSNQGTPTSPVKKFPTSTTKISPKEEERKDESPASWRLGLRKTGSYGALAEITASKEAQKEKDTAGVIRSASSPRLSSAANSISSLIHRD
modifications: left off: a dimerising Fc or GST
B3: M110-(M1-A150): rat aorta M110 fragment, residues 1-150 (protein, UniProt Q10728 1-150, looked up, fragment)
chain: MKMADAKQKRNEQLKRWIGSETDLEPPVVKRQKTKVKFDDGAVFLAACSSGDTDEVLKLLHRGADINYANVDGLTALHQACIDDNVDMVKFLVENGANINQPDNEGWIPLHAAASCGYLDIAEFLIGQGAHVGAVNSEGDTPLDIAEEEA
B4: GST-GM-(E2-P243): GST fusion of amino acids 2-243 of human GM (protein)
chain: EPSEVPSQISKDNFLEVPNLSDSLCEDEEVTFQPGFSPQPSRRGSDSSEDIYLDTPSSGTRRVSFADSFGFNLVSVKEFDCWELPSASTTFDLGTDIFHTEEYVLAPLFDLPSSKEDLMQQLQIQKAILESTESLLGSTSIKGIIRVLNVSFEKLVYVRMSLDDWQTHYDILAEYVPNSCDGETDQFSFKIVLVPPYQKDGSKVEFCIRYETSVGTFWSNNNGTNYTFICQKKEQEPEPVKP
modifications: left off: a dimerising Fc or GST
notes: GST fusion of amino acids 2-243 of human GM
B5: GST-GM-(E2-D118): GST fusion of amino acids 2-118 of human GM (protein)
chain: EPSEVPSQISKDNFLEVPNLSDSLCEDEEVTFQPGFSPQPSRRGSDSSEDIYLDTPSSGTRRVSFADSFGFNLVSVKEFDCWELPSASTTFDLGTDIFHTEEYVLAPLFDLPSSKEDQLNSS
modifications: left off: a dimerising Fc or GST
notes: GST fusion of amino acids 2-118 of human GM

How the values were obtained:
PP1c [1] = biological target: T1, PP1c (Oryctolagus cuniculus, UniProt P62143); test: Phosphorylase phosphatase activity of PP1c; type: biochemical, rabbit
T1 construct: from tissue; host or cells: rabbit skeletal muscle (PP1G dissociated with LiBr)
Experimental: (§1) A,B; Effects of M110-(M1-E309) (closed circles), M110-(M1-F38) (open circles) and M110-(D39-E309) (open triangles) on the MLC20 phosphatase […] and phosphorylase phosphatase (B) activities of PP1c were measured after incubating PP1c for 15 minutes at 30° C. with each fragment. The results are presented as a percentage of those obtained in experiments where the M110 fragments were omitted.
(§2) C,D; The effect of M110-(M1-A150) (open circles) and M110-(L24-Y496) (closed circles) on the MLC20 phosphatase (C) and phosphorylase phosphatase (D) activities of PP1c were measured as in A,B.
(B) The phosphorylase phosphatase activity of PP1c was assayed as in A in the presence or absence of 1 μM GM-(G63-T93) and 1.0 nM M110-(M1-E309). The results are presented (SEM for three experiments) as a percentage of the PP1c activity measured in the absence of GM-(63-T93), M110-(M1-F38) or M110-(M1-E309).
(§3) The myosin-associated form of PP1 (PP1M) was from chicken gizzard and the glycogen-associated form of PP1 (PP1G) from rabbit skeletal muscle. The β isoform of PP1c was released from PP1G by incubation for 2 hours in 2M LiBr, then purified by gel-filtration on a 30×1 cm column of Superose 12 (Pharmacia, Milton Keynes, U.K.) in the presence of 0.5M LiBr. Glycogen protein particles from rat liver were used as the source of hepatic PP1G Digoxygenin-labelled PP1c (γ1-isoform, hereafter termed PP1) was prepared as in [9]. GL was expressed in E. coli as a glutathione-S-transferase (GST) fusion protein [7], termed GST-GL. The catalytic subunit of PP2A from bovine heart (PP2AC) was provided by Dr R. MacKintosh in this Unit. The phosphorylatable myosin light chain (MLC20) and heavy meromyosin from chicken gizzard were a gift from Dr M. Ikebe (Case Western Reserve University, Cleveland, USA). Thrombin and benzamidine-Agarose were purchased from Sigma (Poole, UK).
(§4) ^32P-labelled rabbit skeletal muscle phosphorylase a (containing 1.0 mol phosphate per mol subunit) was prepared by phosphorylation with phosphorylase kinase, ^32P-labelled rabbit skeletal muscle glycogen synthase (containing 1.5 mol/mol subunit in the sites 3 region) was prepared by phosphorylation with glycogen synthase kinase-3 [24]). ^32P-labelled chicken gizzard MLC20 and ^32P-labelled chicken gizzard heavy meromyosin (containing 1.0 mol phosphate per mol subunit) were prepared by phosphorylation with smooth muscle myosin light chain kinase. The dephosphorylation of phosphorylase a (10 μM), glycogen synthase (1 μM) and MLC20 (1 μM) and heavy meromyosin (1 μM) was carried out as in [24]. One unit of activity (U) was that amount which released […] of phosphate in one minute.
(§5) PP1c was isolated from the rabbit skeletal muscle PP1-GM complex as described previously (Johnson et al, 1996). Glycogen particles isolated from rat liver (Schelling el al, 1988) served as the source of PP1-GL. The dephosphorylation of glycogen phosphorylase (10 μM) and the isolated MLC20 of smooth muscle myosin (1 μM) by PP1c was carried out as described previously (Cohen et al., 1988; Alessi et al., 1992).

PP1c [2] = biological target: T1, PP1c; test: MLC20 (myosin P-light chain) phosphatase activity of PP1c; type: biochemical
Experimental: as §1, §2
(A) The MLC20 phosphatase activity of PP1c was assayed after incubation for 15 minutes at 30° C. in the presence or absence of 1 μM GM-(G63-T93) and either 0.1 μM M110-(M1-F38) or 0.1 nM M110-(M1-E309).
(1-38, open circles) or M110[M1-K35] (1-35, closed circles) were incubated with PP1c for 15 min at 30° C. and reactions started with the ^32P-labelled MLC20 substrate. The results are expressed as a % of the activity determined in control incubations where the M110 peptides were omitted (100%). Similar results were obtained in three separate experiments.
as §3, §4, §5
^32P-labelled myosin P-light chains containing 1.0 mol phosphate per mol subunit was prepared by phosphorylation with smooth muscle myosin light chain kinase. The dephosphorylation of myosin P-light chain (1 μM) was carried out as in [4] and one unit of activity (U) was that amount which catalysed the release of 1 μmole of phosphate in one min. When assaying PP1M in immunoprecipitates from the myofibrillar extracts, the tubes were shaken continuously and 3 nM okadaic acid was included to inhibit any PP2A present.

myosin = biological target: T2, myosin (Gallus gallus, UniProt P10587); test: Myosin binding assay (pelleting with myosin); design: species or system chicken; details: myosin 1 μM, 15 min 0° C.
T2 construct: from tissue; host or cells: chicken gizzard
Experimental: The PP1 catalytic subunit (PP1c), PP1M, or PP1M lacking the M21 subunit, PP1M(ΔM21), each at 30 nM, were incubated for 15 min at 0° C. with 1 μM myosin and centrifuged (see Methods of Example 3). […] The results shown are the average (±S.E.M.) for three separate experiments each assayed in duplicate.
(A); PP1M, M110-(M1-S477) and GST-M110-(M377-K976), each at 30 nM were incubated for 15 min at 0° C. with 1 μM myosin and centrifuged. The supernatants (S), resuspended pellets (P) and the suspension before centrifugation (T, total) were electrophoresed on 12% SDS/polyacrylamide gels, transferred to nitrocellulose and immunoblotted with antibodies raised against the PP1M holoenzyme. No protein was pelleted in the absence of myosin (not shown). The positions of the marker proteins myosin heavy chain (200 kDa), glycogen phosphorylase (97 kDa), bovine serum albumin (66 kDa), ovalbumin (43 kDa), carbonic anhydrase (29 kDa) and soybean trypsin inhibitor (20 kDa) are indicated. (B) The experiments were carried out as in (A), except that the M110 fragments and M21 subunit were used at 100 nM, the 8.5 kDa M110-(K933-I1004) fragment was electrophoresed on a 16.5% polyacrylamide gel and immunoblotting was carried out with affinity purified antibodies (see Methods). A small amount of M110-(R714-I1004) pelleted in the absence of myosin. […] No other protein was pelleted in the absence of myosin.
(A); Myosin (1 μM) was mixed with 50 μM, 20 μM or 10 μM M21 subunit to give the molar ratios M21:myosin dimer indicated. After 15 min at 0° C., the solutions were centrifuged and the supernatants (S), resuspended pellets (P) and the suspension before centrifugation (T, total) were electrophoresed on 12% SDS/polyacrylamide gels and stained with Coomassie blue. The positions of the myosin heavy chain (MHC) and the M21 subunit are indicated. The myosin light chains migrate faster than the M21 subunit and are not visible at these loadings.
Myosin binding assays. Myosin (0.5 mg/ml, 1 μM in terms of myosin heavy chains) in 10 mM Hepes pH 7.5, 50 mM KCl, 5 mM MgCl2, 0.1% (by vol) 2-mercaptoethanol, was mixed with PP1M, M21 subunit, or fragments of the M110 and M21 subunits, at the concentrations indicated in figure legends. After incubation for 15 min at 0° C., the solutions were centrifuged for 2 min at 13,000×g, the supernatants removed, and the pellets washed twice in 10 mM Hepes pH 7.5, 50 mM KCl, 5 mM MgCl2, 0.1% (by vol) 2-mercaptoethanol before resuspension in 50 mM Tris-HCl pH 7.5, 0.1 mM EGTA, 0.03% (by mass) Brij 35, 0.6 M NaCl, 0.1% (by vol) 2-mercaptoethanol. Aliquots of the supernatant, the resuspended pellet and the suspension before centrifugation were either assayed for myosin P-light chain phosphatase activity or denatured in SDS and analysed by SDS/polyacrylamide gel electrophoresis.

PP1c (γ1-isoform) = PP1c (γ1-isoform) (Homo sapiens, UniProt P36873); test: Far Western: GST-GM fusion proteins probed with digoxygenin-labelled PP1γ; type: binding; details: GST-fusion proteins on blot probed with digoxygenin-labelled PP1γ
Source text: GST-GM fusion proteins were electrophoresed on 10% SDS/polyacrylamide gels and stained with Coomassie blue (lanes 1-3) or, after transfer to nitrocellulose, probed with digoxygenin-labelled PP1γ (lanes 4-6) as in [9]. Lanes 1 and 4, GST-GM-(E2-D118); Lanes 2 and 5, GST-GM-(H100-P350); Lanes 3 and 6, GST. The positions of the marker proteins glycogen phosphorylase (97 kDa), bovine serum albumin (66 kDa), ovalbumin (43 kDa), carbonic anhydrase (29 kDa) and soybean trypsin inhibitor (20 kDa) are indicated.
as §3
The amino acid sequence of rat hepatic GL is 23% identical (39% similar) to residues 1-286 of GM from human skeletal muscle. […] Fusion proteins in which GST was linked to fragments of GM were therefore tested for their ability to bind to PP1c. […] We therefore synthesised GM-(G63-T93) and examined its effect on the enzymatic properties of PP1GL, the form of PP1 associated with rat hepatic protein-glycogen particles.

T1 sequence (P62143 whole entry): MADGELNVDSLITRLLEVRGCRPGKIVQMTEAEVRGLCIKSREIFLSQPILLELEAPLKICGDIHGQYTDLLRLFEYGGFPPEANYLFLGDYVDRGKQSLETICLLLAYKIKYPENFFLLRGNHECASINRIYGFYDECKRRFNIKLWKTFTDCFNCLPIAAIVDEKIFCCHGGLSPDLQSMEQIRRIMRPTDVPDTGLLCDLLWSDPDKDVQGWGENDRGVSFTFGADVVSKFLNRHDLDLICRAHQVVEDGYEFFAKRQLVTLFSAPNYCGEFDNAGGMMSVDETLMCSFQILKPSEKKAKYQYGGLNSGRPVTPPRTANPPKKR
PP1c (γ1-isoform), sequence (P36873 whole entry, the tested form may be a part, canonical isoform): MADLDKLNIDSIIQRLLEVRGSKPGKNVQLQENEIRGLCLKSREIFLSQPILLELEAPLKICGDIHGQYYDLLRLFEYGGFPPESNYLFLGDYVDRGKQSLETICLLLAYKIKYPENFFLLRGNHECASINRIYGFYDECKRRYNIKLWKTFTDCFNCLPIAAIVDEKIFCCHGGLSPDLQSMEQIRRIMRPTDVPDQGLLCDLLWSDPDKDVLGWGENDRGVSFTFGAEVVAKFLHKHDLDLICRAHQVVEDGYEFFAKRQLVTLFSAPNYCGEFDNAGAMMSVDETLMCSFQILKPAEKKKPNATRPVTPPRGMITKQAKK
T2 sequence (P10587 whole entry): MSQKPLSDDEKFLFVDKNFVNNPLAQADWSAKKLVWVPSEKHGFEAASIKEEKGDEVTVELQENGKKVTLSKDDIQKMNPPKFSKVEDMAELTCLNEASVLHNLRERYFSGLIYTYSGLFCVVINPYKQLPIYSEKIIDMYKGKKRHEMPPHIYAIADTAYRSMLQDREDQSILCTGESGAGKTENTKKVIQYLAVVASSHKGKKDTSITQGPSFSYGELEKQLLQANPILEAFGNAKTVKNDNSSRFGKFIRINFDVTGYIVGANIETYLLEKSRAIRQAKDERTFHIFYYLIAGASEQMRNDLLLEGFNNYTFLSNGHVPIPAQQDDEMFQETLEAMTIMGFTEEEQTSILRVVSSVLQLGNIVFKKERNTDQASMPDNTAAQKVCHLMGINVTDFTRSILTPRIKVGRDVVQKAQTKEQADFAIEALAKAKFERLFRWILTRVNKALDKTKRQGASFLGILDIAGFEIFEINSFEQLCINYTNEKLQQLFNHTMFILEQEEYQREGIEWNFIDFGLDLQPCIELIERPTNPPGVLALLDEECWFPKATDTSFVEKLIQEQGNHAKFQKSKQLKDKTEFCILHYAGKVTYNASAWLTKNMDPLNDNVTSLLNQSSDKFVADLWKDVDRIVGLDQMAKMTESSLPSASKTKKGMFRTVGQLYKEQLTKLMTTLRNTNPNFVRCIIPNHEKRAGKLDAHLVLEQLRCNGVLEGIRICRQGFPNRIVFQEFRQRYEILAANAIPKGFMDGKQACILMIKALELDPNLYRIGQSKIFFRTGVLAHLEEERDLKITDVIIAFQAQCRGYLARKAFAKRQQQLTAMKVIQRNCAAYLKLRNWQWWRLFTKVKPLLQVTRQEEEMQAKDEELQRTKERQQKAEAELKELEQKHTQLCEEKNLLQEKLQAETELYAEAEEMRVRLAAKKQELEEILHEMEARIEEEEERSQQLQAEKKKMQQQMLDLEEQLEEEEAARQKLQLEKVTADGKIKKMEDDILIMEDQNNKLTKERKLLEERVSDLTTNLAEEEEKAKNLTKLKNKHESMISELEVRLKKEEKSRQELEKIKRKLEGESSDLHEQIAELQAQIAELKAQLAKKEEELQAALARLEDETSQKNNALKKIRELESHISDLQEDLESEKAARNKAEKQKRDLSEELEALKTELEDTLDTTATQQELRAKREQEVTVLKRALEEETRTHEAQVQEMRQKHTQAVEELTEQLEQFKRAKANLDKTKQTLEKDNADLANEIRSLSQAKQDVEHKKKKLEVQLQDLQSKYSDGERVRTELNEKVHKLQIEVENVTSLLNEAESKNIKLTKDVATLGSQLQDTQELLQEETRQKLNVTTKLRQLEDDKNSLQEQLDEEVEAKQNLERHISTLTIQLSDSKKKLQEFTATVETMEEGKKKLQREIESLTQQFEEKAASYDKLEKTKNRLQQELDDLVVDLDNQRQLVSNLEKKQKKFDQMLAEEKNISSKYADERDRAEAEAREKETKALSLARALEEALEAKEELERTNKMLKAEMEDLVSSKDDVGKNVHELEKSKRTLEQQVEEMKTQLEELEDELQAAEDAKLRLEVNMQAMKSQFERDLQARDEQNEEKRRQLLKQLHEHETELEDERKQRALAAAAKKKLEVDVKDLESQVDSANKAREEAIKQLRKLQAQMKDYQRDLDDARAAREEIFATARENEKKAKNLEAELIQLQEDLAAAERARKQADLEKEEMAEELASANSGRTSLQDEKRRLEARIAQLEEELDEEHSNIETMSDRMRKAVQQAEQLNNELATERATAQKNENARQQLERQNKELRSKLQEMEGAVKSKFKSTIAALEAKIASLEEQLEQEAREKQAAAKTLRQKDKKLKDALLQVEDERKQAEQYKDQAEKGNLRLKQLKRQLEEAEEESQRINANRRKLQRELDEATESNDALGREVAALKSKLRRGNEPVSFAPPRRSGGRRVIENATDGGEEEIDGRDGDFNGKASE
T2 sequence (P02612 whole entry partner): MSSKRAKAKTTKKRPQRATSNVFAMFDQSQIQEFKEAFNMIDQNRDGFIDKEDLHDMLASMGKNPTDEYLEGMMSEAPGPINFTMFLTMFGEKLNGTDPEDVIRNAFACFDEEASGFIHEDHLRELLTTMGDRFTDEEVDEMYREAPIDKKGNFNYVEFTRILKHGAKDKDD
T2 sequence (P02607 whole entry partner): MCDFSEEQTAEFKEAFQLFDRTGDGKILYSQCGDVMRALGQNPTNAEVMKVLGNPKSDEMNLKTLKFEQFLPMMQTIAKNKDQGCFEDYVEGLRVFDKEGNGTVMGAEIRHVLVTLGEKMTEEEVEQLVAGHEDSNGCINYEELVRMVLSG

Row | Molecule | effect on the phosphorylase phosphatase activity of PP1c (PP1c [1]) | effect on the MLC20 phosphatase activity of PP1c (PP1c [2]) | binding to myosin (myosin) | concentration needed to modulate the specificity of PP1c compared to thrombin-cleaved M110-(M1-E309) (PP1c [2]) [fold higher] | interaction with PP1 in Far Western experiments (PP1c (γ1-isoform))
1 | B1 | inhibited the phosphorylase phosphatase activity of PP1c in a similar manner to M110-(M1-A150) | less effective than M110-(M1-A150) or M110-(M1-E309) in stimulating the MLC20 phosphatase activity of PP1c |  |  | 
2 | B2 | inhibited the dephosphorylation of glycogen phosphorylase | stimulated the PP1c-catalysed dephosphorylation of the myosin P-light chain | neither GST-M110-(M1-S477) nor GST-M110-(M1-E309) bound to myosin |  | 
3 | B3 | modified the specificity of PP1 similarly | modified the specificity of PP1 similarly |  | 10 | 
4 | B4 |  |  |  |  | interacted with PP1
5 | B5 |  |  |  |  | interacted with PP1
